Results published in IntAct's records for PubMed 22575644.

B1: 14-3-3 protein zeta/delta (Homo sapiens), P63104 (parent)
chain: MDKNELVQKAKLAEQAERYDDMAACMKSVTEQGAELSNEERNLLSVAYKNVVGARRSSWRVVSSIEQKTEGAEKKQQMAREYREKIETELRDICNDVLSLLEKFLIPNASQAESKVFYLKMKGDYYRYLAEVAAGDDKKGIVDQSQQAYQEAFEISKKEMQPTHPIRLGLALNFSVFYYEILNSPEKACSLAKTAFDEAIAELDTLSEESYKDSTLIMQLLRDNLTLWTSDTQGDEAEAGEGGEN
partner: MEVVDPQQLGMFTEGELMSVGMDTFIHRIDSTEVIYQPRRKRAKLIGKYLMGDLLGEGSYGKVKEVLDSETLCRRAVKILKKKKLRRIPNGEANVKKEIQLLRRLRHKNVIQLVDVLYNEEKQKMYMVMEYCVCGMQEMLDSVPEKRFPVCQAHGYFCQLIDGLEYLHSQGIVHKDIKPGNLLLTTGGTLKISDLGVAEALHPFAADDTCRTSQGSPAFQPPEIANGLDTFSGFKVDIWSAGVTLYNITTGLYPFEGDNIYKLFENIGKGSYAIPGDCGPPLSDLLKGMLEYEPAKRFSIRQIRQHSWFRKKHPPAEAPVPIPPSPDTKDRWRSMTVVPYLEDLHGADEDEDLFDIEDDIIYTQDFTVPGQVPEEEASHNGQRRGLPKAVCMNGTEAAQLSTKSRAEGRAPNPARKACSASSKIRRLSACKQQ
B2: Serine/threonine-protein kinase STK11 (Homo sapiens), Q15831 (parent)
chain: B1 partner
B3: Serine/threonine-protein kinase STK11 (Homo sapiens), Q15831 (parent)
chain: B1 partner
partner: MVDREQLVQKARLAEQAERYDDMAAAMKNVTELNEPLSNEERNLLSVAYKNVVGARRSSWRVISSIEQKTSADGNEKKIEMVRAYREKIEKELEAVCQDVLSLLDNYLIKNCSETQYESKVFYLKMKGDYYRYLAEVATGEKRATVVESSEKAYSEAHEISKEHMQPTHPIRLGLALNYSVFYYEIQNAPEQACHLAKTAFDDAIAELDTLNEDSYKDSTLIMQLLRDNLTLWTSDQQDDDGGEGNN
B4: Serine/threonine-protein kinase STK11 (Homo sapiens), Q15831 (parent)
chain: B1 partner
partner: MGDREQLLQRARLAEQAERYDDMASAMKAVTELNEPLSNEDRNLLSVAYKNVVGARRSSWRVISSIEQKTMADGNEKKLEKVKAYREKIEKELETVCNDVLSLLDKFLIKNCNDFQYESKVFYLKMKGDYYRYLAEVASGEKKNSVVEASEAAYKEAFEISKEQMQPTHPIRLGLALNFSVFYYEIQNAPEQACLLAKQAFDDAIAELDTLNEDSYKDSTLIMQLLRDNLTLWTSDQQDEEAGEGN

Variants of: B1
Settings: with stk11_human STK11, Q15831

| effect of a mutation on the interaction | Variant |
| --- | --- |
| disrupting interaction | MDKNELVQKAKLAEQAERYDDMAACMKSVTEQGAELSNEERNLLSVAYENVVGARRSSWRVVSSIEQKTEGAEKKQQMAREYREKIETELRDICNDVLSLLEKFLIPNASQAESKVFYLKMKGDYYRYLAEVAAGDDKKGIVDQSQQAYQEAFEISKKEMQPTHPIRLGLALNFSVFYYEILNSPEKACSLAKTAFDEAIAELDTLSEESYKDSTLIMQLLRDNLTLWTSDTQGDEAEAGEGGEN [K49E] |

Variants of: B2
Settings: with 1433z_human YWHAZ

| effect of a mutation on the interaction | Variant |
| --- | --- |
| disrupting interaction | MEVVDPQQLGMFTEGELMSVGMDTFIHRIDSTEVIYQPRRKRAKLIGKYLMGDLLGEGSYGKVKEVLDSETLCRRAVKILKKKKLRRIPNGEANVKKEIQLLRRLRHKNVIQLVDVLYNEEKQKMYMVMEYCVCGMQEMLDSVPEKRFPVCQAHGYFCQLIDGLEYLHSQGIVHKDIKPGNLLLTTGGTLKISDLGVAEALHPFAADDTCRTSQGSPAFQPPEIANGLDTFSGFKVDIWSAGVTLYNITTGLYPFEGDNIYKLFENIGKGSYAIPGDCGPPLSDLLKGMLEYEPAKRFSIRQIRQHSWFRKKHPPAEAPVPIPPSPDTKDRWRSMAVVPYLEDLHGADEDEDLFDIEDDIIYTQDFTVPGQVPEEEASHNGQRRGLPKAVCMNGTEAAQLSTKSRAEGRAPNPARKACSASSKIRRLSACKQQ [T336A] |

Variants of: B3
Settings: with 1433g_human YWHAG

| effect of a mutation on the interaction | Variant |
| --- | --- |
| disrupting interaction | MEVVDPQQLGMFTEGELMSVGMDTFIHRIDSTEVIYQPRRKRAKLIGKYLMGDLLGEGSYGKVKEVLDSETLCRRAVKILKKKKLRRIPNGEANVKKEIQLLRRLRHKNVIQLVDVLYNEEKQKMYMVMEYCVCGMQEMLDSVPEKRFPVCQAHGYFCQLIDGLEYLHSQGIVHKDIKPGNLLLTTGGTLKISDLGVAEALHPFAADDTCRTSQGSPAFQPPEIANGLDTFSGFKVDIWSAGVTLYNITTGLYPFEGDNIYKLFENIGKGSYAIPGDCGPPLSDLLKGMLEYEPAKRFSIRQIRQHSWFRKKHPPAEAPVPIPPSPDTKDRWRSMAVVPYLEDLHGADEDEDLFDIEDDIIYTQDFTVPGQVPEEEASHNGQRRGLPKAVCMNGTEAAQLSTKSRAEGRAPNPARKACSASSKIRRLSACKQQ [T336A] |

Variants of: B4
Settings: with 1433f_human YWHAH

| effect of a mutation on the interaction | Variant |
| --- | --- |
| disrupting interaction | MEVVDPQQLGMFTEGELMSVGMDTFIHRIDSTEVIYQPRRKRAKLIGKYLMGDLLGEGSYGKVKEVLDSETLCRRAVKILKKKKLRRIPNGEANVKKEIQLLRRLRHKNVIQLVDVLYNEEKQKMYMVMEYCVCGMQEMLDSVPEKRFPVCQAHGYFCQLIDGLEYLHSQGIVHKDIKPGNLLLTTGGTLKISDLGVAEALHPFAADDTCRTSQGSPAFQPPEIANGLDTFSGFKVDIWSAGVTLYNITTGLYPFEGDNIYKLFENIGKGSYAIPGDCGPPLSDLLKGMLEYEPAKRFSIRQIRQHSWFRKKHPPAEAPVPIPPSPDTKDRWRSMAVVPYLEDLHGADEDEDLFDIEDDIIYTQDFTVPGQVPEEEASHNGQRRGLPKAVCMNGTEAAQLSTKSRAEGRAPNPARKACSASSKIRRLSACKQQ [T336A] |
